The assay addresses Acetylcholine receptor on AchR-overexpressed TE671 cells. Put plainly: cell-based or functional assay.

Turning to Synake (peptide), the IC50 value for AchR (inhibition of AchR action, TE671 cells) stood at 75 µM.

Source of the values: patent EP3904368A2.
